In US20120294879A1, “CONSENSUS SEQUENCE FOR INFLUENZA A VIRUS” (priority 2009, published 2012):

Assays:
[1] = molecular target: HLA-DR3 (HLA-DRA*0101 and -DRB1*0301), as expressed in HLA-DR3 transgenic mice (human); assay: cell-based or functional assay
[2] = molecular target: HLA-DR4 (HLA-DRA*0101 and -DRB1*0401), as expressed in HLA-DR4 transgenic mice (human); assay: cell-based or functional assay
[3] = tested on: splenocytes of HLA-DR4 (DRB1*0401) transgenic mice; assay type: cell-based; set-up: key: — represents no positive ELISpot response
[4] = tested on: splenocytes of HLA-DR3 (DRB1*0301) transgenic mice; assay type: cell-based; set-up: key to DR3: average IFN-γ spots forming cells per million splenocytes: — represents no positive ELISpot response
[5] = tested on: splenocytes of HLA-B7 (B*0702) transgenic mice; assay type: cell-based; set-up: key to B7: average IFN-γ spots forming cells per million splenocytes: — represents no positive ELISpot response
[6] = tested on: splenocytes of HLA-A24 (A*2402) transgenic mice; assay type: cell-based; set-up: key to A24: average IFN-γ spots forming cells per million splenocytes: — represents no positive ELISpot response
[7] = tested on: splenocytes of HLA-DR2 (DRB1*1501) transgenic mice; assay type: cell-based; set-up: key to DR2: average IFN-γ spots forming cells per million splenocytes: — represents no positive ELISpot response

Substance | IFN-γ ELISpot at 10 µg/ml peptide, splenocytes of immunized HLA transgenic mice [1] | lowest concentration of peptide giving positive ELISpot response [1] | IFN-γ ELISpot at 10 µg/ml peptide, splenocytes of immunized HLA transgenic mice [2] | lowest concentration of peptide giving positive ELISpot response [2] | also measured
M1 169-185 peptide of influenza virus A/New York/348/2003 (H1N1) | 120 | 0.1 µg/mL |  |  | 
M1 175-191 peptide of influenza virus A/New York/348/2003 (H1N1) |  |  | 165 | 0.1 µg/mL | 
M1 181-197 peptide of influenza virus A/New York/348/2003 (H1N1) |  |  | 115 | 1 µg/mL | 
NP 7-23 peptide of influenza virus A/New York/348/2003 (H1N1) |  |  | 52 | 0.1 µg/mL | 
NP 37-53 peptide of influenza virus A/New York/348/2003 (H1N1) | 66 | 1 µg/mL |  |  | 
NP 73-89 peptide of influenza virus A/New York/348/2003 (H1N1) |  |  | 121 | 0.1 µg/mL | 
NP 103-119 peptide of influenza virus A/New York/348/2003 (H1N1) | 614 | 0.1 µg/mL |  |  | 
NP 109-125 peptide of influenza virus A/New York/348/2003 (H1N1) | 501 | 0.1 µg/mL |  |  | 
NP 408-424 peptide of influenza virus A/New York/348/2003 (H1N1) | 41 | 10 µg/mL |  |  | 
PA 126-142 peptide of influenza virus A/New York/348/2003 (H1N1) |  |  | 37 | 0.1 µg/mL | 
PA 132-148 peptide of influenza virus A/New York/348/2003 (H1N1) |  |  | 41 | 0.1 µg/mL | 
PA 558-574 peptide of influenza virus A/New York/348/2003 (H1N1) |  |  | 114 | 0.1 µg/mL | 
PB1 31-47 peptide of influenza virus A/New York/348/2003 (H1N1) |  |  | 106 | 0.1 µg/mL | 
PB1 37-53 peptide of influenza virus A/New York/348/2003 (H1N1) |  |  | 125 | 0.1 µg/mL | 
PB1 120-136 peptide of influenza virus A/New York/348/2003 (H1N1) | 142 | 0.1 µg/mL |  |  | 
PB1 126-142 peptide of influenza virus A/New York/348/2003 (H1N1) | 78 | 0.1 µg/mL |  |  | 
PB1 340-356 peptide of influenza virus A/New York/348/2003 (H1N1) | 175 | 0.1 µg/mL |  |  | 

Substance | IFN-γ ELISpot at 10 µg/ml peptide, splenocytes of immunized HLA transgenic mice [1] | lowest concentration of peptide giving positive ELISpot response [1] | IFN-γ ELISpot at 10 µg/ml peptide, splenocytes of immunized HLA transgenic mice [2] | lowest concentration of peptide giving positive ELISpot response [2] | also measured
PB1 471-487 peptide of influenza virus A/New York/348/2003 (H1N1) | 116 | 0.1 µg/mL |  |  | 
PB1 507-523 peptide of influenza virus A/New York/348/2003 (H1N1) |  |  | 274 | 0.1 µg/mL | 
PB1 656-672 peptide of influenza virus A/New York/348/2003 (H1N1) |  |  | 59 | 0.1 µg/mL | 
PB1 680-696 peptide of influenza virus A/New York/348/2003 (H1N1) | 181 |  |  |  | 
PB2 42-58 peptide of influenza virus A/New York/348/2003 (H1N1) |  |  | 166 | 0.1 µg/mL | 
PB2 48-64 peptide of influenza virus A/New York/348/2003 (H1N1) |  |  | 161 | 0.1 µg/mL | 
PB2 54-70 peptide of influenza virus A/New York/348/2003 (H1N1) | 499 | 0.1 µg/mL |  |  | 
PB2 126-142 peptide of influenza virus A/New York/348/2003 (H1N1) |  |  | 316 | 0.1 µg/mL | 
PB2 132-148 peptide of influenza virus A/New York/348/2003 (H1N1) |  |  | 311 | 0.1 µg/mL | 
PB2 256-272 peptide of influenza virus A/New York/348/2003 (H1N1) | 169 | 0.1 µg/mL |  |  | 
PB2 369-385 peptide of influenza virus A/New York/348/2003 (H1N1) |  |  | 54 | 0.1 µg/mL | 
PB2 458-474 peptide of influenza virus A/New York/348/2003 (H1N1) |  |  | 238 | 0.1 µg/mL | 
RQTYDWTLNRNQPAATA |  |  |  |  | DR4: average IFN-γ spots forming cells per million splenocytes [3]: —; DR3: average IFN-γ spots forming cells per million splenocytes [4]: 78 ± 0(0.1) IFN-γ spots forming cells per million splenocytes; DR3: lowest concentration of peptide giving positive ELISpot response in peptide titration [4]: 78 ± 0(0.1) μg/ml; B7: average IFN-γ spots forming cells per million splenocytes [5]: —; A24: average IFN-γ spots forming cells per million splenocytes [6]: —; DR2: average IFN-γ spots forming cells per million splenocytes [7]: —
SHGTGTGYTMDTVNRTH |  |  |  |  | DR4: average IFN-γ spots forming cells per million splenocytes [3]: 106 ± 1(0.1) IFN-γ spots forming cells per million splenocytes; DR3: average IFN-γ spots forming cells per million splenocytes [4]: —; B7: average IFN-γ spots forming cells per million splenocytes [5]: —; A24: average IFN-γ spots forming cells per million splenocytes [6]: —; DR2: average IFN-γ spots forming cells per million splenocytes [7]: —
SRPMFLYVRTNGTSKIK |  |  |  |  | DR4: average IFN-γ spots forming cells per million splenocytes [3]: 114 ± 24(0.1) IFN-γ spots forming cells per million splenocytes; DR3: average IFN-γ spots forming cells per million splenocytes [4]: —; B7: average IFN-γ spots forming cells per million splenocytes [5]: —; A24: average IFN-γ spots forming cells per million splenocytes [6]: —; DR2: average IFN-γ spots forming cells per million splenocytes [7]: —
TEKLTITYSSSMMWEIN |  |  |  |  | DR4: average IFN-γ spots forming cells per million splenocytes [3]: —; DR3: average IFN-γ spots forming cells per million splenocytes [4]: —; B7: average IFN-γ spots forming cells per million splenocytes [5]: —; A24: average IFN-γ spots forming cells per million splenocytes [6]: —; DR2: average IFN-γ spots forming cells per million splenocytes [7]: 151 ± 67(0.1) IFN-γ spots forming cells per million splenocytes; DR2: lowest concentration of peptide giving positive ELISpot response in peptide titration [7]: 151 ± 67(0.1) μg/ml
